Measurements reported in paper PMC4529489.
pKd: −log10 of the molar value.

Assays:
Human Ubc13 R85S (human) = assay: ITC
[1] = target: Human Ubc13, wild type (human); assay: ITC
Ube2V2 (Homo sapiens) = Ube2V2 (Homo sapiens) (UniProt Q15819); settings: cited from earlier work

## Human Ube2V2 (natural protein)
Human Ubc13 R85S (human)
  fold increase of Kd against WT Ubc13: > 30 times

## Human Ube2V2 E20A (natural protein)
[1]
  fold increase of Kd against WT Ube2V2: 4 times

## Ubc13 (from UniProt P61088)
Ube2V2 (Homo sapiens)
  pKd: 7.30
